Publication PMC6328254, “Sequential Regulation of Maternal mRNAs through a Conserved cis-Acting Element in Their 3′ UTRs”

Legend:
[1] = molecular target: Bruno (UniProt O02374 1-604); experiment: EMSA; 50 mM Tris pH 7.5, 150 mM NaCl, 2 mM DTT, 0.1 mg/ul BSA (so in the source), 0.001% Igepal CA-630, dIdC and yeast tRNA; 20 min at RT; 6% native PAGE at 4 C; conditions: protein: recombinant; tags: His (pETM-82; purified on His GraviTrap); label: 5'-32P
[2] = molecular target: T1, Pumilio RNA-binding domain (UniProt P25822 1091-1426); experiment: as above; conditions: protein: recombinant; tags: HaloTag (pFN18K) removed by AcTEV cleavage; label: 5'-32P
T1 sequence: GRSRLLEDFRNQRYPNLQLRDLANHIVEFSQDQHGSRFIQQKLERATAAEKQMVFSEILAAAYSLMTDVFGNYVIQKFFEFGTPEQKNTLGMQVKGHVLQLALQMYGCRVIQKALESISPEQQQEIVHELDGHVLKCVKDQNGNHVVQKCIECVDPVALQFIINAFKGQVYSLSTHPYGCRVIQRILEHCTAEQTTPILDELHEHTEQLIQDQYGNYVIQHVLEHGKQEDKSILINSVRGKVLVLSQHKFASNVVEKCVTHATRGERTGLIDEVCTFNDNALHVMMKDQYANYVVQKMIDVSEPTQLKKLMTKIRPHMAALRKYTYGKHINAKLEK

Sequence of Bruno (O02374 entry or part of it): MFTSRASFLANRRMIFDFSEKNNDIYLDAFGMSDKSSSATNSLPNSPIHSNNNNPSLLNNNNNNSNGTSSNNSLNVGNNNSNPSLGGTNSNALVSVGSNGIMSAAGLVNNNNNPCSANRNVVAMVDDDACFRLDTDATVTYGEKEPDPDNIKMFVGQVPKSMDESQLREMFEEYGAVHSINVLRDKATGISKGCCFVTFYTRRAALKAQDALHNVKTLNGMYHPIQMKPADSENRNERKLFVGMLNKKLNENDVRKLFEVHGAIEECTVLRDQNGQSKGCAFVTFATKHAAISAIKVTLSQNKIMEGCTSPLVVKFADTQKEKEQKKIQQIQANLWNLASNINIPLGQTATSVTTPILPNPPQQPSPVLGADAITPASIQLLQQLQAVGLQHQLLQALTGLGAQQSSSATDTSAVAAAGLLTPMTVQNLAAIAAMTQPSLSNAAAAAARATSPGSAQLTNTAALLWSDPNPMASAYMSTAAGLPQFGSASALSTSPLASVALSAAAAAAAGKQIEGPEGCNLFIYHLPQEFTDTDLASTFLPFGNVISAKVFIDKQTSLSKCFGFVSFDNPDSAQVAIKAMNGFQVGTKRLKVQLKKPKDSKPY

**Q.** Does UUUUUUAAUU (ssRNA) [pgc 3'UTR PRE mutant UUUU] bind [1]?
**A.** no binding

**Q.** Does UUUUUUAAUU (ssRNA) [pgc 3'UTR PRE mutant UUUU] bind [2]?
**A.** no binding

**Q.** Does UUUGUAAAUU (ssRNA) [pgc 3'UTR PRE/BRE] bind [1]?
**A.** binds

**Q.** Does UUUGUAAAUU (ssRNA) [pgc 3'UTR PRE/BRE] bind [2]?
**A.** binds

**Q.** Does UUUCUCAAUU (ssRNA) [pgc 3'UTR PRE mutant UCUC] bind [1]?
**A.** no binding

**Q.** Does UUUCUCAAUU (ssRNA) [pgc 3'UTR PRE mutant UCUC] bind [2]?
**A.** no binding

**Q.** Does CUUGAAUGUAUGUUAAUUGUAUGUAUUGAU (ssRNA) [osk 3'UTR BRE] bind [1]?
**A.** binds

**Q.** Does UAGACUAUUUGUAAUUUAUAUC (ssRNA) [CycB 3'UTR NRE] bind [2]?
**A.** binds
